{"source": "paper PMC4497383", "biological_target": "3xFLAG-tagged nascent chain of Sec61β with the transferrin receptor TMD, truncated at position 128 (TMD exposed)", "test": "co-IP; unbound fractions of the translation reactions after anti-FLAG purification of the RNCs, immunoblotted relative to serial dilutions of total lysate (depletion)"}
{"substance": "SRP54 subunit of the signal recognition particle (SRP) (from UniProt G1STX4 1-499) (natural protein)", "values": [{"measurement": "percent of SRP in the lysate depleted", "result": 90, "unit": "%"}]}
